Patent US20250074980A1 (BRIGHAM AND WOMEN S HOSPITAL, published 2025)
Numbering of substitutions follows the chain as printed. Names may count otherwise.

T1: His-tagged CEACAM1 (human, UniProt P13688 35-428)
T1 construct: 45 kDa SPR analyte; also called CEACAM1-HIS; CEACAM1 analyte
T1 sequence: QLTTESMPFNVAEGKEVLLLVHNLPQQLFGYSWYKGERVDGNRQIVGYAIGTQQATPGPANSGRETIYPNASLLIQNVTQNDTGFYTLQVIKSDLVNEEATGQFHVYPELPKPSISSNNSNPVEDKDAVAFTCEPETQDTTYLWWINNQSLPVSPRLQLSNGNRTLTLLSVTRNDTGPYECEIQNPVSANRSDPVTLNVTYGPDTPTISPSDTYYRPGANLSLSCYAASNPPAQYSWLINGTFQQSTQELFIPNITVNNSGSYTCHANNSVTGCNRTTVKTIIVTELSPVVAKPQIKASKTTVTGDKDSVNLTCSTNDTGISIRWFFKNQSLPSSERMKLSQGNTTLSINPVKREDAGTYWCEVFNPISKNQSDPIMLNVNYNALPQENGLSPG

B1: CP09B03/CP08F05 (antibody, IgG4, V domains shown)
VH: EVQLLESGGGLVQPGGSLRLSCAASGFTFNAHAISWVRQAPGKGLEWVATISSGGTYTYYPDSVKGRFTISRDNSKNTLYLQMNSLKAEDTAMYYCARHDFDYDAAWFAYWGQGTLVTVSS
VL: EIVLTQSPATLSLSPGERATLSCRANSAVSYMYWYQQKPGQAPRPWIYLTSNRATGVPARFSGSGSGTDYTLTISSLEPEDFAVYYCQQWTSNPPTFGQGTKLEIK
notes: IgG4 (S241P), kappa
B2: CP09B03/CP08D02 (antibody, IgG4, V domains shown)
VH: B1 VH
VL: B1 VL with N93F
notes: IgG4 (S241P), kappa
B3: CP09B03/CP08E01 (antibody, IgG4, V domains shown)
VH: B1 VH
VL: B1 VL with S92T, N93F
notes: IgG4 (S241P), kappa
B4: CP08A03/Vκ8 S29A (antibody, IgG4, V domains shown)
VH: B1 VH with T28I, A31N
VL: B1 VL with T91S
notes: IgG4 (S241P), kappa
B5: CP08B03/Vκ8 S29A (antibody, IgG4, V domains shown)
VH: B1 VH with N30T
VL: B1 VL with T91S
notes: IgG4 (S241P), kappa
B6: CP08D11/Vκ8 S29A (antibody, IgG4, V domains shown)
VH: B1 VH with F27Y, T28S, N30S, A33G, I34M
VL: B1 VL with T91S
notes: IgG4 (S241P), kappa
B7: CP08H01/Vκ8 S29A (antibody, IgG4, V domains shown)
VH: B1 VH with T28I, N30S, A31S, A33G, I34M, R98K, D100P, F101P, D104F
VL: B1 VL with T91S
notes: IgG4 (S241P), kappa
B8: VH1/CP08G01 (antibody, IgG4, V domains shown)
VH: B1 VH with T28I, N30S, A31S, A33G, I34M
VL: B1 VL with W90N, S92N, N93L, P95F
notes: IgG4 (S241P), kappa
B9: CP08C04/Vκ8 S29A (antibody, IgG4, V domains shown)
VH: B1 VH with N30S, A31S, A33G, I34M
VL: B1 VL with T91S
notes: IgG4 (S241P), kappa
B10: CP08D01/Vκ8 S29A (antibody, IgG4, V domains shown)
VH: B1 VH with A33G, I34M
VL: B1 VL with T91S
notes: IgG4 (S241P), kappa
B11: CP08B11/Vκ8 S29A (antibody, IgG4, V domains shown)
VH: B1 VH with N30T, A31N, A33G, I34M
VL: B1 VL with T91S
notes: IgG4 (S241P), kappa
B12: CP09G03/Vκ8 S29A (antibody, IgG4, V domains shown)
VH: B1 VH with I34M
VL: B1 VL with T91S
notes: IgG4 (S241P), kappa
B13: CP08C01/Vκ8 S29A (antibody, IgG4, V domains shown)
VH: B1 VH with F27Y, T28S, N30S, A31N, A33G, I34M
VL: B1 VL with T91S
notes: IgG4 (S241P), kappa
B14: CP08B01/Vκ8 S29A (antibody, IgG4, V domains shown)
VH: B1 VH with N30S, I34M
VL: B1 VL with T91S
notes: IgG4 (S241P), kappa
B15: CP08A06/Vκ8 S29A (antibody, IgG4, V domains shown)
VH: B1 VH with F27Y, T28S, N30S, A31S, A33G, I34M
VL: B1 VL with T91S
notes: IgG4 (S241P), kappa
B16: VH1/CP09F05 (antibody, IgG4, V domains shown)
VH: B1 VH with T28I, N30S, A31S, A33G, I34M
VL: B1 VL with W90N, S92A, N93L, P95F
notes: IgG4 (S241P), kappa
B17: CP08B04/Vκ8 S29A (antibody, IgG4, V domains shown)
VH: B1 VH with T28I, N30S, A31S, A33G, I34M, D104F, A105P, Y110L
VL: B1 VL with T91S
notes: IgG4 (S241P), kappa
B18: CP09E03/Vκ8 S29A (antibody, IgG4, V domains shown)
VH: B1 VH with N30S
VL: B1 VL with T91S
notes: IgG4 (S241P), kappa
B19: CP09F03/Vκ8 S29A (antibody, IgG4, V domains shown)
VH: B1 VH with A31N, A33G, I34M
VL: B1 VL with T91S
notes: IgG4 (S241P), kappa
B20: CP08F07/Vκ8 S29A (antibody, IgG4, V domains shown)
VH: B1 VH with N30T, A31D
VL: B1 VL with T91S
notes: IgG4 (S241P), kappa
B21: CP09A04/Vκ8 S29A (antibody, IgG4, V domains shown)
VH: B1 VH with T28S, I34M
VL: B1 VL with T91S
notes: IgG4 (S241P), kappa
B22: VH1/CP08G02 (antibody, IgG4, V domains shown)
VH: B1 VH with T28I, N30S, A31S, A33G, I34M
VL: B1 VL with S92N
notes: IgG4 (S241P), kappa
B23: CP09B02/Vκ8 S29A (antibody, IgG4, V domains shown)
VH: B1 VH with N30T, A31S
VL: B1 VL with T91S
notes: IgG4 (S241P), kappa
B24: CP08A08/Vκ8 S29A (antibody, IgG4, V domains shown)
VH: B1 VH with T28I, N30T, A31N, A33G, I34M
VL: B1 VL with T91S
notes: IgG4 (S241P), kappa
B25: CP09D03/Vκ8 S29A (antibody, IgG4, V domains shown)
VH: B1 VH with N30S, A31S
VL: B1 VL with T91S
notes: IgG4 (S241P), kappa
B26: CP08G10/Vκ8 S29A (antibody, IgG4, V domains shown)
VH: B1 VH with T28I, N30S, A31S, A33G, I34M, D104F, A105P, Y110F
VL: B1 VL with T91S
notes: IgG4 (S241P), kappa
B27: CP08B06/Vκ8 S29A (antibody, IgG4, V domains shown)
VH: B1 VH with T28S, A31S
VL: B1 VL with T91S
notes: IgG4 (S241P), kappa

Biological target: T1, His-tagged CEACAM1
Test: SPR single-cycle, supernatant IgG captured
Method in brief: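 IgG came from supernatants of HEK EBNA cells transiently transfected by PEI in 6-well plates and harvested 5-7 days later. Supernatants were quantified by ELISA and filtered. Single-cycle surface plasmon resonance was run on a Biacore T200 at 25° C in HBS-P+ (pH 7.4), with IgG captured on Protein A and His-tagged CEACAM1 as analyte. Kon, koff and Kd were fitted, and relative KD was calculated against the parent antibody assayed in the same experiment.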

Kd	koff	kon	relative KD to parent	Binder
150 nM	0.017 s⁻¹	110000 M⁻¹ s⁻¹	3.6	B1
290 nM	0.059 s⁻¹	210000 M⁻¹ s⁻¹	1.9	B2
250 nM	0.046 s⁻¹	180000 M⁻¹ s⁻¹	2.2	B3

Biological target: T1, His-tagged CEACAM1
Test: SPR single-cycle, supernatant IgG captured
Remark: another data set of the same source
Method: In order to assess the binding of the humanized, affinity matured reformatted lead IgGs, single-cycle kinetics analysis was performed on crude supernatants using a Biacore T200 running Biacore T200 Control Software V2.0.1 and Biacore T200 Evaluation Software V3.0. Antibodies were diluted in HBS-P+ to a final concentration of 0.5 μg/ml. At the start of each cycle, antibodies were loaded onto Fc2, Fc3 and Fc4 of the Protein A chip. IgGs were captured at a flow rate of 10 μl/min to give an immobilisation level (RL) of ˜100 RU (a level calculated to obtain a Rₘₐₓ of ˜50-150 RU once the analyte is bound). The surface was then allowed to stabilize. Single-cycle kinetics data was obtained with CEACAM1 as the analyte at a flow rate of 80 μl/min to minimize any potential mass transfer effects. Multiple repeats with the parent (VH1/Vκ8 S29A) antibody were performed to check the stability of the surface and analyte over the kinetic cycles. The signal from the reference channel Fc1 (no antibody) was subtracted from that of Fc2, Fc3 and Fc4 to correct for differences in non-specific binding to the reference surface. A three point, two-fold dilution range from 70 nM to 280 nM CEACAM1 without regeneration between each concentration was used. The signal from each antibody blank run (no CEACAM1) was subtracted to correct for differences in surface stability. The association phase for the three injections of increasing concentrations of CEACAM1 was monitored for 80 seconds each time and a single dissociation phase was measured for 150 seconds following the last injection of CEACAM1. Regeneration of the Protein A surface was conducted using two injections of 10 mM glycine-HCL pH 1.5 followed by a stabilization period of 250 seconds.

Kd	koff	kon	relative KD to parent	Binder
430 nM	0.039 s⁻¹	93000 M⁻¹ s⁻¹	1.3	B4
360 nM	0.069 s⁻¹	200000 M⁻¹ s⁻¹	1.6	B5
2000 nM	0.17 s⁻¹	86000 M⁻¹ s⁻¹	0.3	B6
420 nM	0.087 s⁻¹	210000 M⁻¹ s⁻¹	1.3	B7
400 nM	0.047 s⁻¹	120000 M⁻¹ s⁻¹	1.5	B8
1200 nM	0.26 s⁻¹	220000 M⁻¹ s⁻¹	0.5	B9
300 nM	0.043 s⁻¹	140000 M⁻¹ s⁻¹	1.9	B10
610 nM	0.059 s⁻¹	96000 M⁻¹ s⁻¹	0.9	B11
350 nM	0.038 s⁻¹	110000 M⁻¹ s⁻¹	1.5	B12
1200 nM	0.1 s⁻¹	82000 M⁻¹ s⁻¹	0.5	B13
610 nM	0.044 s⁻¹	72000 M⁻¹ s⁻¹	0.9	B14
440 nM	0.075 s⁻¹	170000 M⁻¹ s⁻¹	1.3	B15
1600 nM	0.055 s⁻¹	35000 M⁻¹ s⁻¹	0.4	B16
410 nM	0.049 s⁻¹	120000 M⁻¹ s⁻¹	1.4	B17
400 nM	0.037 s⁻¹	110000 M⁻¹ s⁻¹	1.6	B18
1000 nM	0.076 s⁻¹	74000 M⁻¹ s⁻¹	0.5	B19
470 nM	0.081 s⁻¹	170000 M⁻¹ s⁻¹	1.2	B20
400 nM	0.036 s⁻¹	90000 M⁻¹ s⁻¹	1.4	B21
2300 nM	0.052 s⁻¹	23000 M⁻¹ s⁻¹	0.3	B22
340 nM	0.04 s⁻¹	120000 M⁻¹ s⁻¹	1.6	B23
1300 nM	0.073 s⁻¹	57000 M⁻¹ s⁻¹	0.4	B24
310 nM	0.033 s⁻¹	110000 M⁻¹ s⁻¹	1.8	B25
630 nM	0.055 s⁻¹	87000 M⁻¹ s⁻¹	0.9	B26
420 nM	0.044 s⁻¹	110000 M⁻¹ s⁻¹	1.3	B27
